Results reported in IntAct's records for PubMed 16763556.

Columns and labels:
poli_human POLI = target: T1, poli_human POLI (UniProt Q9UNA4)
T1 sequence: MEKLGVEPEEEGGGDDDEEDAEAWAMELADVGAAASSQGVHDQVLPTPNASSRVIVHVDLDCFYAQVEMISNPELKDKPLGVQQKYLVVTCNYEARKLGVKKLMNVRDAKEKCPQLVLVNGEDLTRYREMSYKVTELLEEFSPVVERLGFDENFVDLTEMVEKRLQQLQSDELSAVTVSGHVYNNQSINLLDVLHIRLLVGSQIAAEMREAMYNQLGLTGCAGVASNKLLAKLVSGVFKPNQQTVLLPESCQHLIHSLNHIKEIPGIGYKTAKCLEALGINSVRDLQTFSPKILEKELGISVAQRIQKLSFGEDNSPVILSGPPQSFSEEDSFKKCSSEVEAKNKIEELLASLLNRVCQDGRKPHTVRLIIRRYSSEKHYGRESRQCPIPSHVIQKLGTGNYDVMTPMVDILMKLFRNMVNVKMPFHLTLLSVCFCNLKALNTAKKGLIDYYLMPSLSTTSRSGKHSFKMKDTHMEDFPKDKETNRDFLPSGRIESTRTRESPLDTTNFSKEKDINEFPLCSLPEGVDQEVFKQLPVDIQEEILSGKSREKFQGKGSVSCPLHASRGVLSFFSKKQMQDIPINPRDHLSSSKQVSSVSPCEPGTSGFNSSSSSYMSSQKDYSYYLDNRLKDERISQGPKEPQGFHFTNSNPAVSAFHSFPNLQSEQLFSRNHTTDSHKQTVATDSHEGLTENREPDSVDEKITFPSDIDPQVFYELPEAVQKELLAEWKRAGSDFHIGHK

polh_human POLH = target: T2, polh_human POLH (UniProt Q9Y253)
T2 sequence: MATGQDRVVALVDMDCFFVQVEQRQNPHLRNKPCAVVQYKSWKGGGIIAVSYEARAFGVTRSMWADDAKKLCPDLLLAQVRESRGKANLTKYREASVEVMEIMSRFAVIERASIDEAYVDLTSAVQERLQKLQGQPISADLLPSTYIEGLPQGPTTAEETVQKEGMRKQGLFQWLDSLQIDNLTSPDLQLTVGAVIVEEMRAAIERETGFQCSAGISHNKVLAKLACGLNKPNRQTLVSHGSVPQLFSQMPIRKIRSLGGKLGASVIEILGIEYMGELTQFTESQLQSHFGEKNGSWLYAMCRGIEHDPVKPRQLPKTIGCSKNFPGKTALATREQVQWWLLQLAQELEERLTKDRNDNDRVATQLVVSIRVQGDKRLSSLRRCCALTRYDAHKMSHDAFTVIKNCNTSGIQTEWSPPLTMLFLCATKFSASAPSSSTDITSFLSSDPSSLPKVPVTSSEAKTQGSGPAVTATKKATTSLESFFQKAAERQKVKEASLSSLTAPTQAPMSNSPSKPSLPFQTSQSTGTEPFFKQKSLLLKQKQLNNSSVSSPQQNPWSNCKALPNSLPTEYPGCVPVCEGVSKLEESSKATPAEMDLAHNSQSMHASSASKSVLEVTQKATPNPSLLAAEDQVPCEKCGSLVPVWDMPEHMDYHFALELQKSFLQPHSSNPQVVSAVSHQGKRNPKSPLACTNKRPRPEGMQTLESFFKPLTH

Substance | effect of a mutation on the interaction (poli_human POLI) | effect of a mutation on the interaction (polh_human POLH)
Polyubiquitin-C (Homo sapiens) (from UniProt P0CG48) G75S | disrupting interaction | disrupting interaction
Polyubiquitin-C (Homo sapiens) (from UniProt P0CG48) G76S | disrupting interaction | disrupting interaction
